From article PMC9482650, “Quantitative fragmentomics allow affinity mapping of interactomes” (Nature Communications, 2022)

target: T1, ARHGEF11, O15085; assay: holdup assay; parameters: key: below the threshold = too weak to quantify, mostly under pKd 3.1 to 4; conditions: plain residues with an end cap or a label only (N-terminal biotin on a linker: ado-ado)
T1 sequence (O15085 42-136, limits assumed, looked up): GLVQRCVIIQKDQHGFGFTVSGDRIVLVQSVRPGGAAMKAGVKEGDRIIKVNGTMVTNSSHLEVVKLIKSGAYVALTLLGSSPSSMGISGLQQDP

Binder	pKd
KRPEMTSSSV [MUC3A, MUC3B, Q02505;Q9H195]	3.74
SRSVVESDEL [MYPN, Q86TC9]	3.74

target: CASK, O14936; assay: holdup assay; parameters: key: below the threshold = too weak to quantify, mostly under pKd 3.1 to 4; conditions: plain residues with an end cap or a label only (N-terminal biotin on a linker: ado-ado)
Sequence (O14936 487-570): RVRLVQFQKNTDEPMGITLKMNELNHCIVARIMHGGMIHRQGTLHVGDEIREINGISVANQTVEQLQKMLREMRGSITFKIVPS

Binder	pKd
SRSVVESDEL [MYPN, Q86TC9]	below the threshold

target: T2, DFNB31_1, Q9P202; assay: holdup assay; parameters: key: below the threshold = too weak to quantify, mostly under pKd 3.1 to 4; conditions: plain residues with an end cap or a label only (N-terminal biotin on a linker: ado-ado)
T2 sequence (Q9P202 135-233, limits assumed, looked up): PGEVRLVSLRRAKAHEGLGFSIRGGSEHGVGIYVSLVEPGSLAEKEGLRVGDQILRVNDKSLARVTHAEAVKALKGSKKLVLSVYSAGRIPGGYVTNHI

Binder	pKd
SRSVVESDEL [MYPN, Q86TC9]	below the threshold

target: T3, DFNB31_2, Q9P202; assay: holdup assay; parameters: key: below the threshold = too weak to quantify, mostly under pKd 3.1 to 4; conditions: plain residues with an end cap or a label only (N-terminal biotin on a linker: ado-ado)
T3 sequence (Q9P202 274-371, limits assumed, looked up): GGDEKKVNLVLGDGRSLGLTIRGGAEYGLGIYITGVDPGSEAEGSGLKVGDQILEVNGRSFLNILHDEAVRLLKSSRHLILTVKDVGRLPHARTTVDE

Binder	pKd
KRPEMTSSSV [MUC3A, MUC3B, Q02505;Q9H195]	below the threshold
SRSVVESDEL [MYPN, Q86TC9]	below the threshold

target: DLG1_2, Q12959; assay: holdup assay; parameters: key: below the threshold = too weak to quantify, mostly under pKd 3.1 to 4; conditions: plain residues with an end cap or a label only (N-terminal biotin on a linker: ado-ado)
Sequence (Q12959 314-412): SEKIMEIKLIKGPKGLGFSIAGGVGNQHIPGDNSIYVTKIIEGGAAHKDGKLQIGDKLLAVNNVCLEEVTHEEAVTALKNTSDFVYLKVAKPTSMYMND

Binder	pKd
SRSVVESDEL [MYPN, Q86TC9]	below the threshold

target: DLG5_1, Q8TDM6; assay: holdup assay; parameters: key: below the threshold = too weak to quantify, mostly under pKd 3.1 to 4; conditions: plain residues with an end cap or a label only (N-terminal biotin on a linker: ado-ado)
Sequence (Q8TDM6 617-713): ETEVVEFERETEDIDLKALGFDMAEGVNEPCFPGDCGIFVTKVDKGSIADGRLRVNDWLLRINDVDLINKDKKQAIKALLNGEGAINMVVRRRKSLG

Binder	pKd
SRSVVESDEL [MYPN, Q86TC9]	below the threshold

target: FRMPD2_1, Q68DX3; assay: holdup assay; parameters: key: below the threshold = too weak to quantify, mostly under pKd 3.1 to 4; conditions: plain residues with an end cap or a label only (N-terminal biotin on a linker: ado-ado)
Sequence (Q68DX3 770-861): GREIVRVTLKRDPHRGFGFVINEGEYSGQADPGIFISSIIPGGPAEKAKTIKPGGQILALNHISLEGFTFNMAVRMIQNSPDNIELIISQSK

Binder	pKd
SRSVVESDEL [MYPN, Q86TC9]	below the threshold

target: FRMPD3, Q5JV73; assay: holdup assay; parameters: key: below the threshold = too weak to quantify, mostly under pKd 3.1 to 4; conditions: plain residues with an end cap or a label only (N-terminal biotin on a linker: ado-ado)
Sequence (Q5JV73 12-100): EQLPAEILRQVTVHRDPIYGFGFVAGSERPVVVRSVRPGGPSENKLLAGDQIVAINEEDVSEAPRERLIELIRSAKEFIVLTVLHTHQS

Binder	pKd
KRPEMTSSSV [MUC3A, MUC3B, Q02505;Q9H195]	below the threshold
SRSVVESDEL [MYPN, Q86TC9]	below the threshold

target: GIPC2, Q8TF65; assay: holdup assay; parameters: key: below the threshold = too weak to quantify, mostly under pKd 3.1 to 4; conditions: plain residues with an end cap or a label only (N-terminal biotin on a linker: ado-ado)
Sequence (Q8TF65 112-203): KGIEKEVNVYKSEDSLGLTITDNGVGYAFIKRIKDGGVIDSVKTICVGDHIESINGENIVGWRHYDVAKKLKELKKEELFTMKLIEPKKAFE

Binder	pKd
KRPEMTSSSV [MUC3A, MUC3B, Q02505;Q9H195]	3.73
SRSVVESDEL [MYPN, Q86TC9]	below the threshold

target: T4, GRIP1_3, Q9Y3R0; assay: holdup assay; parameters: key: below the threshold = too weak to quantify, mostly under pKd 3.1 to 4; conditions: plain residues with an end cap or a label only (N-terminal biotin on a linker: ado-ado)
T4 sequence (Q9Y3R0 247-346, limits assumed, looked up): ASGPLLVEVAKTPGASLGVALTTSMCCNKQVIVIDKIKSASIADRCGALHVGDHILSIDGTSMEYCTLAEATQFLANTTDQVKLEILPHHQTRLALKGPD

Binder	pKd
KRPEMTSSSV [MUC3A, MUC3B, Q02505;Q9H195]	below the threshold
SRSVVESDEL [MYPN, Q86TC9]	below the threshold

target: GRIP2_7, Q9C0E4; assay: holdup assay; parameters: key: below the threshold = too weak to quantify, mostly under pKd 3.1 to 4; conditions: plain residues with an end cap or a label only (N-terminal biotin on a linker: ado-ado)
Sequence (Q9C0E4 934-1023): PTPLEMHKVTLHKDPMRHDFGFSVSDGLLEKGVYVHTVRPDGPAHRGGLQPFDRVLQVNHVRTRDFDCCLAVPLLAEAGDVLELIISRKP

Binder	pKd
KRPEMTSSSV [MUC3A, MUC3B, Q02505;Q9H195]	below the threshold
SRSVVESDEL [MYPN, Q86TC9]	below the threshold

target: Inadl_5, Q8NI35; assay: holdup assay; parameters: key: below the threshold = too weak to quantify, mostly under pKd 3.1 to 4; conditions: plain residues with an end cap or a label only (N-terminal biotin on a linker: ado-ado)
Sequence (Q8NI35 673-780): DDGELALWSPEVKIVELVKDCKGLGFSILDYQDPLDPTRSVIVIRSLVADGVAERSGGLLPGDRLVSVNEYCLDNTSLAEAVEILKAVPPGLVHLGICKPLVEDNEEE

Binder	pKd
KRPEMTSSSV [MUC3A, MUC3B, Q02505;Q9H195]	below the threshold
SRSVVESDEL [MYPN, Q86TC9]	below the threshold

target: T5, LIN7C, Q9NUP9; assay: holdup assay; parameters: key: below the threshold = too weak to quantify, mostly under pKd 3.1 to 4; conditions: plain residues with an end cap or a label only (N-terminal biotin on a linker: ado-ado)
T5 sequence (Q9NUP9 88-185, limits assumed, looked up): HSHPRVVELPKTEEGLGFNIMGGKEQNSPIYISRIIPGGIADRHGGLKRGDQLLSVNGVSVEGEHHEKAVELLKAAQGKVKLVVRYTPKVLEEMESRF

Binder	pKd
SRSVVESDEL [MYPN, Q86TC9]	below the threshold

target: T6, LNX2_3, Q8N448; assay: holdup assay; parameters: key: below the threshold = too weak to quantify, mostly under pKd 3.1 to 4; conditions: plain residues with an end cap or a label only (N-terminal biotin on a linker: ado-ado)
T6 sequence (Q8N448 463-564, limits assumed, looked up): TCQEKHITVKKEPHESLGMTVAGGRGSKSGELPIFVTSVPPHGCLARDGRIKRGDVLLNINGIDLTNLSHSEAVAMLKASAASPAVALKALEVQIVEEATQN

Binder	pKd
KRPEMTSSSV [MUC3A, MUC3B, Q02505;Q9H195]	below the threshold
SRSVVESDEL [MYPN, Q86TC9]	below the threshold

target: MAGI1_2, Q96QZ7; assay: holdup assay; parameters: key: below the threshold = too weak to quantify, mostly under pKd 3.1 to 4; conditions: plain residues with an end cap or a label only (N-terminal biotin on a linker: ado-ado)
Sequence (Q96QZ7 456-580): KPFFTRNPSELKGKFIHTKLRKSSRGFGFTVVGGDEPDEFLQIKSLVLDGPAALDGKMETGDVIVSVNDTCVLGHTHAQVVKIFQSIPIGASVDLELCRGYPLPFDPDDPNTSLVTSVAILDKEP

Binder	pKd
SRSVVESDEL [MYPN, Q86TC9]	below the threshold

target: MAGI2_2, Q86UL8; assay: holdup assay; parameters: key: below the threshold = too weak to quantify, mostly under pKd 3.1 to 4; conditions: plain residues with an end cap or a label only (N-terminal biotin on a linker: ado-ado)
Sequence (Q86UL8 410-522): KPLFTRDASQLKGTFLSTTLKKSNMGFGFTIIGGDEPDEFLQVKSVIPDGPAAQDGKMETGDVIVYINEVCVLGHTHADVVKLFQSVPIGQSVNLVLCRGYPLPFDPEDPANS

Binder	pKd
KRPEMTSSSV [MUC3A, MUC3B, Q02505;Q9H195]	3.65
SRSVVESDEL [MYPN, Q86TC9]	below the threshold

target: MAGI2_4, Q86UL8; assay: holdup assay; parameters: key: below the threshold = too weak to quantify, mostly under pKd 3.1 to 4; conditions: plain residues with an end cap or a label only (N-terminal biotin on a linker: ado-ado)
Sequence (Q86UL8 772-865): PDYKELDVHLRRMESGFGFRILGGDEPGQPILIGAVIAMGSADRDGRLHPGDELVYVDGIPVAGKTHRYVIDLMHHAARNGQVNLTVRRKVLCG

Binder	pKd
KRPEMTSSSV [MUC3A, MUC3B, Q02505;Q9H195]	1.79
SRSVVESDEL [MYPN, Q86TC9]	below the threshold

target: MAST1, Q9Y2H9; assay: holdup assay; parameters: key: below the threshold = too weak to quantify, mostly under pKd 3.1 to 4; conditions: plain residues with an end cap or a label only (N-terminal biotin on a linker: ado-ado)
Sequence (Q9Y2H9 962-1065): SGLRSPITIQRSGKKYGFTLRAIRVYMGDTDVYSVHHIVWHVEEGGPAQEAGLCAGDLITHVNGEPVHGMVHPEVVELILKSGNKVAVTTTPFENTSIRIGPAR

Binder	pKd
KRPEMTSSSV [MUC3A, MUC3B, Q02505;Q9H195]	4.17
SRSVVESDEL [MYPN, Q86TC9]	below the threshold

target: T7, MPP2, Q14168; assay: holdup assay; parameters: key: below the threshold = too weak to quantify, mostly under pKd 3.1 to 4; conditions: plain residues with an end cap or a label only (N-terminal biotin on a linker: ado-ado)
T7 sequence (Q14168 180-250, limits assumed, looked up): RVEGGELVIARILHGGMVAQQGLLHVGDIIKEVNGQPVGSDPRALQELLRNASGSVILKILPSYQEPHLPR

Binder	pKd
KRPEMTSSSV [MUC3A, MUC3B, Q02505;Q9H195]	below the threshold
SRSVVESDEL [MYPN, Q86TC9]	below the threshold

target: T8, PARD3B_1, Q8TEW8; assay: holdup assay; parameters: key: below the threshold = too weak to quantify, mostly under pKd 3.1 to 4; conditions: plain residues with an end cap or a label only (N-terminal biotin on a linker: ado-ado)
T8 sequence (Q8TEW8 196-299, limits assumed, looked up): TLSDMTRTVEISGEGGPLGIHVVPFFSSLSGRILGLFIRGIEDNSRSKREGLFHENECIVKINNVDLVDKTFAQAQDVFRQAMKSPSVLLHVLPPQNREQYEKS

Binder	pKd
KRPEMTSSSV [MUC3A, MUC3B, Q02505;Q9H195]	below the threshold
SRSVVESDEL [MYPN, Q86TC9]	below the threshold

target: T9, RADIL, Q96JH8; assay: holdup assay; parameters: key: below the threshold = too weak to quantify, mostly under pKd 3.1 to 4; conditions: plain residues with an end cap or a label only (N-terminal biotin on a linker: ado-ado)
T9 sequence (Q96JH8 971-1071, limits assumed, looked up): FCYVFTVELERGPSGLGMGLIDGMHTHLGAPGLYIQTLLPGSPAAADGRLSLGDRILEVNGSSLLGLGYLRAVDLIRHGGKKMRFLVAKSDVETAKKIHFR

Binder	pKd
KRPEMTSSSV [MUC3A, MUC3B, Q02505;Q9H195]	below the threshold
SRSVVESDEL [MYPN, Q86TC9]	below the threshold

target: T10, SIPA1L2, Q9P2F8; assay: holdup assay; parameters: key: below the threshold = too weak to quantify, mostly under pKd 3.1 to 4; conditions: plain residues with an end cap or a label only (N-terminal biotin on a linker: ado-ado)
T10 sequence (Q9P2F8 945-1036, limits assumed, looked up): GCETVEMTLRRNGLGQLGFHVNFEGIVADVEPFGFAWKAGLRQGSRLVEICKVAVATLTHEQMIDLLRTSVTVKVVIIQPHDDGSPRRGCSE

Binder	pKd
KRPEMTSSSV [MUC3A, MUC3B, Q02505;Q9H195]	below the threshold
SRSVVESDEL [MYPN, Q86TC9]	below the threshold

target: T11, SNTG2, Q9NY99; assay: holdup assay; parameters: key: below the threshold = too weak to quantify, mostly under pKd 3.1 to 4; conditions: plain residues with an end cap or a label only (N-terminal biotin on a linker: ado-ado)
T11 sequence (Q9NY99 68-166, limits assumed, looked up): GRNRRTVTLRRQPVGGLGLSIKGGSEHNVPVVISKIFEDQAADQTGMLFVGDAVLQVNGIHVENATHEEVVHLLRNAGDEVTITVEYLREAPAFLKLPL

Binder	pKd
SRSVVESDEL [MYPN, Q86TC9]	below the threshold

target: TJP1_2, Q07157; assay: holdup assay; parameters: key: below the threshold = too weak to quantify, mostly under pKd 3.1 to 4; conditions: plain residues with an end cap or a label only (N-terminal biotin on a linker: ado-ado)
Sequence (Q07157 181-274): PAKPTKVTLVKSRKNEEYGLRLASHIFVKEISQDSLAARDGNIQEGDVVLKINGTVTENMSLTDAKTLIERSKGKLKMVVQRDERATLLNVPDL

Binder	pKd
SRSVVESDEL [MYPN, Q86TC9]	3.51

target: TJP2_1, Q9UDY2; assay: holdup assay; parameters: key: below the threshold = too weak to quantify, mostly under pKd 3.1 to 4; conditions: plain residues with an end cap or a label only (N-terminal biotin on a linker: ado-ado)
Sequence (Q9UDY2 24-128): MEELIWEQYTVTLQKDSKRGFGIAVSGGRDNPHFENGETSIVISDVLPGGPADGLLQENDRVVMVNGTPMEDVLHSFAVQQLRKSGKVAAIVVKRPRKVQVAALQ

Binder	pKd
KRPEMTSSSV [MUC3A, MUC3B, Q02505;Q9H195]	below the threshold
SRSVVESDEL [MYPN, Q86TC9]	below the threshold

target: T12, TJP3_3, O95049; assay: holdup assay; parameters: key: below the threshold = too weak to quantify, mostly under pKd 3.1 to 4; conditions: plain residues with an end cap or a label only (N-terminal biotin on a linker: ado-ado)
T12 sequence (O95049 375-456, limits assumed, looked up): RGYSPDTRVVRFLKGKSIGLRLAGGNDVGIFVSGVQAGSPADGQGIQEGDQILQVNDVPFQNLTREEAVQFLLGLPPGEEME

Binder	pKd
KRPEMTSSSV [MUC3A, MUC3B, Q02505;Q9H195]	below the threshold
SRSVVESDEL [MYPN, Q86TC9]	below the threshold
